The results in this text go back to patent US20170298395A1, “AUTOTROPHIC HYDROGEN BACTERIA AND USES THEREOF” (Ohio State Innovation Foundation, priority 2011, published 2017).

Where two headings read alike, the source gives them in different places.

Data set [1] deals with Ralstonia eutropha cbbR deletion reporter strain. The data set is classed as cell-based. Particulars: chemoautotrophic, CO2/H2/O2 atmosphere, minimal media.
A further data set relates to cbb promoter. Type of data set: cell-based, Ralstonia eutropha. Particulars: for Chemoheterotrophic β-galactosidase activity: Table 12, chemoheterotrophic (repressed) growth.
In another data set the test system is cbbL transcript. The data set is classed as cell-based, Ralstonia eutropha. Particulars: chemoautotrophic growth.
Another data set deals with RubisCO. Type of data set: cell-based, Ralstonia eutropha. Particulars: for Chemoheterotrophic RubisCO activity: Table 12, chemoheterotrophic (repressed) growth.
A further data set deals with R. eutropha. Nature of the data set: Relative promoter strength / gene expression in R. eutropha. The data set is classed as cell-based. Particulars: autotrophic growth conditions. The method, then: The lac and tac promoters are E. coli promoters, but have been used to drive gene expression of other genes in R. eutropha. The pha promoter is a native R. eutropha promoter and drives expression of genes involved in polyhydroxybutyrate (PHB) production. The relative strength of these promoters in R. eutropha was determined. The pha promoter was 1.2 times stronger than the lac promoter and that the tac promoter was 2.1 times stronger than the lac promoter (1). The cbbM and cbbL promoters were also examined. The cbbM and cbbL promoters are strong promoters which drive expression of the genes that encode for RubisCO in Rhodosporilium rubrum/Rhodobacter sphaeroides/Rhodobacter capsulatus and R. eutropha, respectively. […] Each promoter was placed in the vector pBBR1MCS3, and the ability of these gene expression vectors was assessed (Table 4). The pBBR1 vector has Accession No. U02374 (4707 bp). The pBBR1MCS-3 vector has Accession No. U25059 (5228 bp). Plasmid pRPS-MCS3 (SEQ ID NO: 36) (see Journal of Molecular Biology, 331(3): 557-569 (2003)) derives from plasmid pBBR1-MCS3.
Vectors were made with the native cbbL and constitutive cbbL promoters. The cbbL promoter is native to R. eutropha and is highly expressed and regulated. […] To construct strains with a constitutive cbbL promoter, the lac promoter within the pBBR1MCS-3 vector was removed and replaced by the constitutive cbbL promoter. […]

The mark [2] stands for this setting: Table 9, chemoautotrophic growth conditions.
The mark [3] stands for this setting: Table 12, chemoautotrophic (induced) growth.

B1: D144N (protein)
chain: MSSFLRALTLRQLQIFVTVARHASFVRAAEELHLTQPAVSMQVKQLESVVGMALFERVKGQLTLTEPGDRLLHHASRILGEVKDAEEGLQAVKDVEQGSITIGLISTSKYFAPKLLAGFTALHPGVDLRIAEGNRETLLRLLQNNAIDLALMGRPPRELDAVSEPIAAHPHVLVASPRHPLHDAKGFDLQELRHETFLLREPGSGTRTVAEYMFRDHLFTPAKVITLGSNETIKQAVMAGMGISLLSLHTLGLELRTGEIGLLDVAGTPIERIWHVAHMSSKRLSPASESCRAYLLEHTAEFLGREYGGLMPGRRVA
In the case of B1, in data set [1], the “Doubling Time” value is 6.8 h. For the same molecule, the “Chemoautotrophic β-galactosidase activity” value with cbb promoter (setting [2]) and in the data set on cbb promoter (setting [3]) was 6932 nmol/min/mg of protein throughout. Moreover, the “Chemoheterotrophic β-galactosidase activity” value in the data set with cbb promoter was 809 nmol/min/mg of protein. The “increase in transcription over wild type CbbR (RT-PCR, FIG. 22)” value with cbbL transcript (26 cycles of PCR) turned out to be 1.8 fold. The “increase in cbb transcript over wild type CbbR (RT-PCR, FIG. 21)” value in the data set on cbbL transcript (OD 0.2) was found to be 2.4 fold. Besides, the “level of RubisCO relative to wild-type CbbR” value with RubisCO (CA growth conditions) was 2.2 fold. Moreover, the “Chemoautotrophic RubisCO activity” value in the data set on RubisCO (setting [2]) is listed as 188 nmol/min/mg of protein; in the data set on RubisCO (setting [3]), 314 nmol/min/mg of protein. The “Chemoheterotrophic RubisCO activity” value with RubisCO is 26 nmol/min/mg of protein.

B2: G205D (protein)
chain: MSSFLRALTLRQLQIFVTVARHASFVRAAEELHLTQPAVSMQVKQLESVVGMALFERVKGQLTLTEPGDRLLHHASRILGEVKDAEEGLQAVKDVEQGSITIGLISTSKYFAPKLLAGFTALHPGVDLRIAEGNRETLLRLLQDNAIDLALMGRPPRELDAVSEPIAAHPHVLVASPRHPLHDAKGFDLQELRHETFLLREPGSDTRTVAEYMFRDHLFTPAKVITLGSNETIKQAVMAGMGISLLSLHTLGLELRTGEIGLLDVAGTPIERIWHVAHMSSKRLSPASESCRAYLLEHTAEFLGREYGGLMPGRRVA
B2: the “Doubling Time” value in data set [1] worked out at 7.8 h. Further, the figures for the “Chemoautotrophic β-galactosidase activity” value in the data set with cbb promoter (setting [2]) and in the data set with cbb promoter (setting [3]) were 2634 nmol/min/mg of protein and 2241 nmol/min/mg of protein, respectively. Further, the “Chemoheterotrophic β-galactosidase activity” value in the data set with cbb promoter is given as 488 nmol/min/mg of protein. The “Chemoautotrophic RubisCO activity” value with RubisCO (setting [2]) is listed as 133 nmol/min/mg of protein; in the data set on RubisCO (setting [3]) it was 54 nmol/min/mg of protein. The “Chemoheterotrophic RubisCO activity” value with RubisCO was 10 nmol/min/mg of protein.

B3: L79F (protein)
chain: MSSFLRALTLRQLQIFVTVARHASFVRAAEELHLTQPAVSMQVKQLESVVGMALFERVKGQLTLTEPGDRLLHHASRIFGEVKDAEEGLQAVKDVEQGSITIGLISTSKYFAPKLLAGFTALHPGVDLRIAEGNRETLLRLLQDNAIDLALMGRPPRELDAVSEPIAAHPHVLVASPRHPLHDAKGFDLQELRHETFLLREPGSGTRTVAEYMFRDHLFTPAKVITLGSNETIKQAVMAGMGISLLSLHTLGLELRTGEIGLLDVAGTPIERIWHVAHMSSKRLSPASESCRAYLLEHTAEFLGREYGGLMPGRRVA
Consider B3, for which the “Doubling Time” value in data set [1] came out at 5.6 h. Also, the “Chemoautotrophic β-galactosidase activity” value in the data set on cbb promoter (setting [2]) and with cbb promoter (setting [3]) was 6840 nmol/min/mg of protein throughout. For the same molecule, the “Chemoheterotrophic β-galactosidase activity” value with cbb promoter is 218 nmol/min/mg of protein. The figures for the “Chemoautotrophic RubisCO activity” value in the data set with RubisCO (setting [2]) and in the data set with RubisCO (setting [3]) were 209 nmol/min/mg of protein and 304 nmol/min/mg of protein, respectively. The “Chemoheterotrophic RubisCO activity” value in the data set with RubisCO was 4 nmol/min/mg of protein.

B4: E87K/G242S (protein)
chain: MSSFLRALTLRQLQIFVTVARHASFVRAAEELHLTQPAVSMQVKQLESVVGMALFERVKGQLTLTEPGDRLLHHASRILGEVKDAEKGLQAVKDVEQGSITIGLISTSKYFAPKLLAGFTALHPGVDLRIAEGNRETLLRLLQDNAIDLALMGRPPRELDAVSEPIAAHPHVLVASPRHPLHDAKGFDLQELRHETFLLREPGSGTRTVAEYMFRDHLFTPAKVITLGSNETIKQAVMAGMSISLLSLHTLGLELRTGEIGLLDVAGTPIERIWHVAHMSSKRLSPASESCRAYLLEHTAEFLGREYGGLMPGRRVA
With B4, the “Doubling Time” value in data set [1] came to 6.0 h. In addition, the “Chemoautotrophic β-galactosidase activity” value with cbb promoter (setting [2]) is given as 4312 nmol/min/mg of protein; with cbb promoter (setting [3]), 4820 nmol/min/mg of protein. Further, the “Chemoheterotrophic β-galactosidase activity” value in the data set on cbb promoter is recorded as 303 nmol/min/mg of protein. Further, the “Chemoautotrophic RubisCO activity” value is listed as 128 nmol/min/mg of protein with RubisCO (setting [2]) and 198 nmol/min/mg of protein in the data set with RubisCO (setting [3]). The “Chemoheterotrophic RubisCO activity” value with RubisCO is 6 nmol/min/mg of protein.

B5: constitutive cbbL promoter: constitutive R. eutropha cbbL promoter, SEQ ID NO: 30 (nucleic acid)
DNA: GCAACTGGCGAAGGGTAAGGGCGCGCAGGAAGGACGACATGGGCGGTTGGGGGCGGCTTTGGATGGTCCCGTGATGTGCAGCTTGGTCCGCACTTAAGGGATTGCTTATACAGGGGCTAAGAATATCTGAATTGACATTATGTGGGTGGGCTTATATAATTGCATCAACGCAGCAGCCAAGACGCTCAACCACGCAAGGAGACAAGC
As to B5, the “increase in gene expression” value in the data set on R. eutropha is 2.4 fold.
